# Measured values as given in patent US20220372155A1 (LYVGEN BIOPHARMA, published 2022).
# B1: Ly401 (bispecific antibody, human IgG1, kappa)
# heavy: EVQLVESGGGVVQPGRSLRLSCSASGFDFTTYWMSWVRQAPGKGLEWIGEIHPDSSTINYAPSLKDRFTISRDNAKNTLFLQMDSLRPEDTGVYFCASLYFGFPWFAYWGQGTPVTVSSASTKGPSVFPLAPSSKSTSGGTAALGCLVKDYFPEPVTVSWNSGALTSGVHTFPAVLQSSGLYSLSSVVTVPSSSLGTQTYICNVNHKPSNTKVDKKVEPKSCDKTHTCPPCPAPELLGPSVFLFPPKPKDTLMISRTPEVTCVVVDVSHEDPEVKFNWYVDGVEVHNAKTKPREEQYNSTYRVVSVLTVLHQDWLNGKEYKCKVSNKALPAPIEKTISKAKGQPREPQVYTLPPSREEMTKNQVSLTCLVKGFYPSDIAVEWESNGQPENNYKTTPPVLDSDGSFFLYSKLTVDKSRWQQGNVFSCSVMHEALHNHYTQKSLSLSPGGGGGSGGGGSGGGGSGGGGSDIQMTQSPSSLSASVGDRVTITCKASQNIYIYLNWYQQKPGKAPKLLIYNTNNLQTGVPSRFSGSGSGTDFTLTISSLQPEDFATYYCLQHSSRRTFGGGTKVEIKGGGGSGGGGSGGGGSGGGGSQVQLVESGGGLVQPGGSLKLSCATSGFNFNDYFMNWVRQASGKGLEWVGQIRNKNYNYATYYTESLEGRVTISRDDSKNTAYLQMNSLKTEDTAVYYCTSYYYDGFADYFDYWGQGTTVTVSS
# light: DIQLTQSPSSLSASVGDRVTITCKASQDVGTSVAWYQQKPGKAPKLLIYWTSTRHTGVPSRFSGSGSGTDFTFTISSLQPEDIATYYCQQYSLYRSFGQGTKVEIKRTVAAPSVFIFPPSDEQLKSGTASVVCLLNNFYPREAKVQWKVDNALQSGNSQESVTEQDSKDSTYSLSSTLTLSKADYEKHKVYACEVTHQGLSSPVTKSFNRGEC
# notes: Ly311 HC (IgG1 mutated Fc)-TM740 scFv VL-VH + Ly311 LC
# B2: Ly402 (bispecific antibody, human IgG1, kappa)
# heavy: EVQLVESGGGVVQPGRSLRLSCSASGFDFTTYWMSWVRQAPGKGLEWIGEIHPDSSTINYAPSLKDRFTISRDNAKNTLFLQMDSLRPEDTGVYFCASLYFGFPWFAYWGQGTPVTVSSASTKGPSVFPLAPSSKSTSGGTAALGCLVKDYFPEPVTVSWNSGALTSGVHTFPAVLQSSGLYSLSSVVTVPSSSLGTQTYICNVNHKPSNTKVDKKVEPKSCDKTHTCPPCPAPELLGPSVFLFPPKPKDTLMISRTPEVTCVVVDVSHEDPEVKFNWYVDGVEVHNAKTKPREEQYNSTYRVVSVLTVLHQDWLNGKEYKCKVSNKALPAPIEKTISKAKGQPREPQVYTLPPSREEMTKNQVSLTCLVKGFYPSDIAVEWESNGQPENNYKTTPPVLDSDGSFFLYSKLTVDKSRWQQGNVFSCSVMHEALHNHYTQKSLSLSPGGGGGSGGGGSGGGGSGGGGSQVQLVESGGGLVQPGGSLKLSCATSGFNFNDYFMNWVRQASGKGLEWVGQIRNKNYNYATYYTESLEGRVTISRDDSKNTAYLQMNSLKTEDTAVYYCTSYYYDGFADYFDYWGQGTTVTVSSGGGGSGGGGSGGGGSGGGGSDIQMTQSPSSLSASVGDRVTITCKASQNIYIYLNWYQQKPGKAPKLLIYNTNNLQTGVPSRFSGSGSGTDFTLTISSLQPEDFATYYCLQHSSRRTFGGGTKVEIK
# light: B1 light
# notes: Ly311 HC (IgG1 mutated Fc)-TM740 scFv VH-VL + Ly311 LC
# B3: Ly403 (bispecific antibody, human IgG1, kappa)
# heavy: EVQLVESGGGVVQPGRSLRLSCSASGFDFTTYWMSWVRQAPGKGLEWIGEIHPDSSTINYAPSLKDRFTISRDNAKNTLFLQMDSLRPEDTGVYFCASLYFGFPWFAYWGQGTPVTVSSASTKGPSVFPLAPSSKSTSGGTAALGCLVKDYFPEPVTVSWNSGALTSGVHTFPAVLQSSGLYSLSSVVTVPSSSLGTQTYICNVNHKPSNTKVDKKVEPKSCDKTHTCPPCPAPELLGPSVFLFPPKPKDTLMISRTPEVTCVVVDVSHEDPEVKFNWYVDGVEVHNAKTKPREEQYNSTYRVVSVLTVLHQDWLNGKEYKCKVSNKALPAPIEKTISKAKGQPREPQVYTLPPSREEMTKNQVSLTCLVKGFYPSDIAVEWESNGQPENNYKTTPPVLDSDGSFFLYSKLTVDKSRWQQGNVFSCSVMHEALHNHYTQKSLSLSPGK
# light: DIQLTQSPSSLSASVGDRVTITCKASQDVGTSVAWYQQKPGKAPKLLIYWTSTRHTGVPSRFSGSGSGTDFTFTISSLQPEDIATYYCQQYSLYRSFGQGTKVEIKRTVAAPSVFIFPPSDEQLKSGTASVVCLLNNFYPREAKVQWKVDNALQSGNSQESVTEQDSKDSTYSLSSTLTLSKADYEKHKVYACEVTHQGLSSPVTKSFNRGECGGGGSGGGGSGGGGSGGGGSDIQMTQSPSSLSASVGDRVTITCKASQNIYIYLNWYQQKPGKAPKLLIYNTNNLQTGVPSRFSGSGSGTDFTLTISSLQPEDFATYYCLQHSSRRTFGGGTKVEIKGGGGSGGGGSGGGGSGGGGSQVQLVESGGGLVQPGGSLKLSCATSGFNFNDYFMNWVRQASGKGLEWVGQIRNKNYNYATYYTESLEGRVTISRDDSKNTAYLQMNSLKTEDTAVYYCTSYYYDGFADYFDYWGQGTTVTVSS
# notes: Ly311 HC (IgG1 mutated Fc) + Ly311 LC-TM740 scFv VL-VH
# B4: Ly404 (bispecific antibody, human IgG1, kappa)
# heavy: B3 heavy
# light: DIQLTQSPSSLSASVGDRVTITCKASQDVGTSVAWYQQKPGKAPKLLIYWTSTRHTGVPSRFSGSGSGTDFTFTISSLQPEDIATYYCQQYSLYRSFGQGTKVEIKRTVAAPSVFIFPPSDEQLKSGTASVVCLLNNFYPREAKVQWKVDNALQSGNSQESVTEQDSKDSTYSLSSTLTLSKADYEKHKVYACEVTHQGLSSPVTKSFNRGECGGGGSGGGGSGGGGSGGGGSQVQLVESGGGLVQPGGSLKLSCATSGFNFNDYFMNWVRQASGKGLEWVGQIRNKNYNYATYYTESLEGRVTISRDDSKNTAYLQMNSLKTEDTAVYYCTSYYYDGFADYFDYWGQGTTVTVSSGGGGSGGGGSGGGGSGGGGSDIQMTQSPSSLSASVGDRVTITCKASQNIYIYLNWYQQKPGKAPKLLIYNTNNLQTGVPSRFSGSGSGTDFTLTISSLQPEDFATYYCLQHSSRRTFGGGTKVEIK
# notes: Ly311 HC (IgG1 mutated Fc) + Ly311 LC-TM740 scFv VH-VL
# B5: Ly405 (bispecific antibody, human IgG1, kappa)
# heavy: EVQLVESGGGLVQPGGSLRLSCAASGFNIKDTYMHWVRQAPGKGLEWVARIDPANGNSKYADSVKGRFTISADTSKNTAYLQMNSLRAEDTAVYYCAPFGYYVSDYAMAYWGQGTLVTVSSASTKGPSVFPLAPSSKSTSGGTAALGCLVKDYFPEPVTVSWNSGALTSGVHTFPAVLQSSGLYSLSSVVTVPSSSLGTQTYICNVNHKPSNTKVDKKVEPKSCDKTHTCPPCPAPELLGPSVFLFPPKPKDTLMISRTPEVTCVVVDVSHEDPEVKFNWYVDGVEVHNAKTKPREEQYNSTYRVVSVLTVLHQDWLNGKEYKCKVSNKALPAPIEKTISKAKGQPREPQVYTLPPSREEMTKNQVSLTCLVKGFYPSDIAVEWESNGQPENNYKTTPPVLDSDGSFFLYSKLTVDKSRWQQGNVFSCSVMHEALHNHYTQKSLSLSPGGGGGSGGGGSGGGGSGGGGSDIQMTQSPSSLSASVGDRVTITCKASQNIYIYLNWYQQKPGKAPKLLIYNTNNLQTGVPSRFSGSGSGTDFTLTISSLQPEDFATYYCLQHSSRRTFGGGTKVEIKGGGGSGGGGSGGGGSGGGGSQVQLVESGGGLVQPGGSLKLSCATSGFNFNDYFMNWVRQASGKGLEWVGQIRNKNYNYATYYTESLEGRVTISRDDSKNTAYLQMNSLKTEDTAVYYCTSYYYDGFADYFDYWGQGTTVTVSS
# light: DIQLTQSPSSLSASVGDRVTITCRAGESVDIFGVGFLHWYQQKPGKAPKLLIYRASNLESGVPSRFSGSGSRTDFTLTISSLQPEDFATYYCQQTNEDPYTFGQGTKVEIKRTVAAPSVFIFPPSDEQLKSGTASVVCLLNNFYPREAKVQWKVDNALQSGNSQESVTEQDSKDSTYSLSSTLTLSKADYEKHKVYACEVTHQGLSSPVTKSFNRGEC
# notes: Ly312 HC (IgG1 mutated Fc)-TM740 scFv VL-VH + Ly312 LC
# Molecular target: T1, human CD40 expressed on CHO cells (human, UniProt P25942 21-277)
# T1 construct: whole, on cells; also used for the reporter cells over-expressing human CD40; also called cellular CD40; CHO-CD40 cells
# T1 sequence (P25942 21-277): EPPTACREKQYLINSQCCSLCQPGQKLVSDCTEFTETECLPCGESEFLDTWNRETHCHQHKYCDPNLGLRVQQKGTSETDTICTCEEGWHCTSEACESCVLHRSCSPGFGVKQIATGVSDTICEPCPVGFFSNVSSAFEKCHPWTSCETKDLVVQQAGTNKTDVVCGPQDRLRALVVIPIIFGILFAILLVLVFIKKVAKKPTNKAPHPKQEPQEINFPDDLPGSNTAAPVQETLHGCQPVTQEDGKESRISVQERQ
# Experiment: FACS, CHO cells
row,Binder,binding result
1,B1,binds
2,B2,binds
3,B3,binds
4,B4,binds
5,B5,binds
